Data reported in US20250277030A1, “ANTI-NAPI2B ANTIBODIES AND METHODS OF USE” (Zymeworks BC Inc., priority 2022, published 2025).

T1: NaPi2b expressed on IGROV-1 cells (Homo sapiens, UniProt O95436)
T1 construct: IGROV-1 cells express endogenous NaPi2b at a high level; endogenous in cells; host or cells: IGROV-1
T1 sequence (O95436 1-690): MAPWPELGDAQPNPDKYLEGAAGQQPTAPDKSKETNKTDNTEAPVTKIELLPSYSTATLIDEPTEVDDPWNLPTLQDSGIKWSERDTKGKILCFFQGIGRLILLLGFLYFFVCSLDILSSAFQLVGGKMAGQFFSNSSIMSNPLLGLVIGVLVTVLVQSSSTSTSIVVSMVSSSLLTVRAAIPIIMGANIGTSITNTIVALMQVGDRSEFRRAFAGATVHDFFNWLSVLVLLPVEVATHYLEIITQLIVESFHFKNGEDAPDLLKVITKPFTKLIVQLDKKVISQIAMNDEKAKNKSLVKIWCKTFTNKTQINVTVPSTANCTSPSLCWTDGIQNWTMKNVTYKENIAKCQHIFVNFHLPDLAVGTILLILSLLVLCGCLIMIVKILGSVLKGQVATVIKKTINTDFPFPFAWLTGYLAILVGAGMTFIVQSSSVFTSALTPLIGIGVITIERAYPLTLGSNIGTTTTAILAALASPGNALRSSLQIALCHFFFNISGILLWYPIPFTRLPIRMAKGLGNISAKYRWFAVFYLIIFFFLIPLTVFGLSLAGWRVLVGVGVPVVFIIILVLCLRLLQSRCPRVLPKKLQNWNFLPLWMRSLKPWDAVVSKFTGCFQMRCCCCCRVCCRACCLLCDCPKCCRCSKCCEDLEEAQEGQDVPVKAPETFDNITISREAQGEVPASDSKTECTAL

B1: v29452: humanized anti-NaPi2b IgG1/kappa antibody H1L3; VH SEQ ID NO:24, VL SEQ ID NO:30 (antibody, V domains shown)
VH: QVQLVQSGAEVKKPGASVKVSCKASGFTFTSYNVHWVRQAPGQGLEWMGAISPGNGDLSYAQKFQGRVTMTRDTSTSTVYMELSSLRSEDTAVYYCARGRTGMGAVDYWGQGTLVTVSS
VL: DVQMTQSPSSLSASVGDRVTITCRASQDVYSYLNWYQQKPGKAVKLLIYYTSRLQSGVPSRFSGSGSGTDYTLTISSLQPEDIATYYCQQYNIFPWTFGQGTKLEIK
modifications: v29452, v29456, v29460 VH (H1); v29449, v29450, v29451, v29452 VL (L3)
B2: v18993-DL2 (conjugate, chains of the INN, looked up)
VH: EVQLVESGGGLVQPGGSLRLSCAASGFSFSDFAMSWVRQAPGKGLEWVATIGRVAFHTYYPDSMKGRFTISRDNSKNTLYLQMNSLRAEDTAVYYCARHRGFDVGHFDFWGQGTLVTVSS
VL: DIQMTQSPSSLSASVGDRVTITCRSSETLVHSSGNTYLEWYQQKPGKAPKLLIYRVSNRFSGVPSRFSGSGSGTDFTLTISSLQPEDFATYYCFQGSFNPLTFGQGTKVEIK
modifications: drug-linker DL2
B3: v18993-DL1 (conjugate, chains of the INN, looked up)
VH: B2 VH
VL: B2 VL
modifications: drug-linker DL1

Assays:
[1] = Thermal stability by differential scanning calorimetry (DSC); format: physicochemical; details: 0.4 mg/mL in PBS, scan 20° C. to 100° C. at 60° C./hr
Procedure: The thermal stability of the humanized antibody variants was assessed by differential scanning calorimetry (DSC) as described below.
400 μL of purified samples primarily at concentrations of 0.4 mg/mL in PBS were used for DSC analysis with a VP-Capillary DSC (Malvern Panalytical Inc., Westborough, MA). At the start of each DSC run, 5 buffer blank injections were performed to stabilize the baseline, and a buffer injection was placed before each sample injection for referencing. Each sample was scanned from 20° C. to 100° C. at a 60° C./hr rate, with low feedback, 8 sec filter, 3 min pre-scan thermostat, and 70 psi nitrogen pressure. The resulting thermograms were referenced and analyzed using Origin 7 software (OriginLab Corporation, Northampton, MA) to determine melting temperature (Tm) as an indicator of thermal stability.

[2] = Capillary isoelectric focusing (cIEF); format: physicochemical; details: main isoform; 0.5 mg/mL
Procedure: (§1) The isoelectric point was measured by capillary isoelectric focusing (cIEF), the propensity for self-aggregation was measured by Affinity-capture self-interaction nanoparticle spectroscopy (AC-SINS) and non-specific binding was measured by NS-ELISA, as described below.
cIEF was carried out using Maurice C. (ProteinSimple®) system, System Suitability Kit and Method Development Kit. System suitability standard, fluorescence calibration standard, cartridge and samples were prepared according to vendor's recommendations. The capillary was automatically calibrated with a fluorescence standard preconditioned with Maurice cIEF System Suitability Kit to ensure the capillary was functioning properly. The antibody samples were diluted to a concentration of 0.5 mg/mL in a final volume of 40 μL in Gibco™ Distilled Water, and mixed Maurice cIEF Method Development Kit Samples. The samples were then vortexed, centrifuged and the supernatant pipetted into individual wells of a 96-well plate. All electropherograms were detected with UV absorbance at 280 nm. All data analyses were performed using vendor software Compass for iCE (ProteinSimple®).

ssDNA = test: NS-ELISA non-specific binding, ssDNA; details: mAb at 100 nM
Procedure: as §1
(§2) NS-ELISA was used to measure the propensity of the antibodies to bind to a range of biomolecules to emulate the undesirable non-specific interactions to biological matrices in vivo as described below.
(§3) NS-ELISA was carried out in Corning®96-well EIA/RIA Easy Wash™ Clear Flat Bottom Polystyrene High Bind Microplate coated overnight at 4° C. with 50 μL of Heparin (Sigma, H3149) diluted with 50 mM sodium carbonate pH 9.6 to a final concentration of 250 μg/mL. The plate was incubated for 2 days at room temperature, wells that were coated with heparin were not covered to allow air dry. […] Reactions were stopped after approximately 10 minutes by adding 100 μL of 1 M HCl to each well, and absorbance was read at 450 nm. Binding scores were calculated as the ratio of the ELISA signal of the antibody (antibody-treated) to the signal of a well containing buffer instead of the primary antibody (untreated). The cutoffs considered for each binding molecule (ssDNA, KLH, insulin, dsDNA and heparin) were internally calculated, based on the average of Zymeworks Inc. produced antibodies and antibodies benchmarks published in the literature.

Insulin = biological target: T2, Insulin (Homo sapiens, UniProt P01308); test: NS-ELISA non-specific binding, insulin; details: mAb at 100 nM
T2 construct: purchased Sigma-Aldrich 19278
Procedure: as §1, §2, §3

dsDNA = test: NS-ELISA non-specific binding, dsDNA; details: mAb at 100 nM
Procedure: as §1, §2, §3

[3] = NS-ELISA non-specific binding, heparin; details: mAb at 100 nM
Procedure: as §1, §2, §3

[4] = biological target: T1, NaPi2b expressed on IGROV-1 cells; test: Cellular binding of bivalent antibodies to IGROV-1 cells by flow cytometry (Example 13); details: IGROV-1, 24 hours at 4° C., NB = no cellular binding
Procedure: IGROV-1 cells express endogenous NaPi2b at a high level.
Briefly, cells were seeded at 50,000 cells/well in conical-bottom 96-well plates and treated with test antibody for 24 hours at 4° C. to prevent internalization. Palivizumab (anti-RSV antibody, v22277) was included as a negative control. […] Following incubation, cells were washed and stained with anti-Human IgG Fc AF647 conjugate (Jackson Immuno Research Labs, West Grove, PA; Cat. No. 109-605-098) at 4° C. for 30 min. Following incubation and washing, fluorescence was detected by flow cytometry on a BD LSRFortessa™ Cell Analyzer (BD Biosciences, Franklin Lake, NJ) with 1,000 minimum events collected per well. The AF647/APC-A GeoMean (fluorescence signal geometric mean, proportional to anti-Human AF647 binding) was calculated for the live cell population using FlowJo™ Version 10.8.1 (BD Biosciences, Franklin Lake, NJ) and plotted for each test antibody using GraphPad Prism Version 9 (GraphPad Software, San Diego, CA).

OVCAR-3 cells = test: In vitro cytotoxicity, 2D monolayer, CellTiter-Glo, OVCAR-3; format: cell-based, human; details: OVCAR-3, 4 days; IC = Incomplete Curve
Procedure: (§4) The cytotoxicity as measured by cell growth inhibition of the humanized variant v29456 (H1L2) conjugated to various drug-linkers were assessed in a panel of NaPi2b-expressing cell lines as described below. Cell lines used were OVCAR-3 (ovarian carcinoma), IGROV-1 (ovarian carcinoma), and HCC-78 (lung carcinoma). ADCs with antibody palivizumab (anti-RSV) (v22277) were used as non-targeted controls.
(§5) OVCAR-3 were cultured in RPMI 1640 Medium, ATCC modification (Thermo Fisher Scientific, Waltham, MA) supplemented with 20% fetal bovine serum (FBS) (Thermo Fisher Scientific, Waltham, MA) and 0.01 μg/mL human insulin (Sigma-Aldrich, Oakville, ON). […] After incubation, CellTiter-Glo® reagent (Promega Corporation, Madison, WI) was added in all wells and luminescence corresponding to ATP present in each well was measured using a Synergy™H1 plate reader (BioTek Instruments, Winooski, VT). Percent cytotoxicity values were calculated by the following formula: (1−(Luminescence of Treated Cells/Average Luminescence of Untreated Cells))×100, and plotted against test article concentration using GraphPad Prism 9 software (GraphPad Software, San Diego, CA). EC50 values were calculated based on a non-linear regression log(agonist) versus response, variable slope (four parameters) by GraphPad Prism 9.

IGROV-1 cells = test: In vitro cytotoxicity, 2D monolayer, CellTiter-Glo, IGROV-1; format: cell-based, human; details: IGROV-1, 4 days
Procedure: as §4, §5

HCC-78 cells = test: In vitro cytotoxicity, 2D monolayer, CellTiter-Glo, HCC-78; format: cell-based, human; details: HCC-78, 4 days
Procedure: as §4, §5

T2 sequence (P01308 25-54 limits assumed): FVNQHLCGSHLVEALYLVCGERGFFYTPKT
T2 sequence (P01308 90-110 limits assumed): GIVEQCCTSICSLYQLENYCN

Row | Molecule | Fab Tm [1] [°C] | cIEF pI [2] | NS-ELISA binding score (ratio of signal between antibody-treated and untreated), ssDNA (ssDNA) | NS-ELISA binding score (ratio of signal between antibody-treated and untreated), Insulin (Insulin) | NS-ELISA binding score (ratio of signal between antibody-treated and untreated), dsDNA (dsDNA) | NS-ELISA binding score (ratio of signal between antibody-treated and untreated), Heparin [3] | Bmax (MFI) [4] | Curve Hill Slope (h) [4] | Kd ([4]; apparent Kd) [nM] | EC50 (OVCAR-3 cells) [nM] | EC50 (IGROV-1 cells) [nM] | EC50 (HCC-78 cells) [nM]
1 | B1 | 79.5 | 8.53 | 1.22 | 1.03 | 1.0 | 1.05 | 47,763 MFI | 0.9 | – | – | – | –
2 | B2 | – | – | – | – | – | – | 39,758 MFI | 1.1 | 3 | 0.49 | 2.12 | 1.77
3 | B3 | – | – | – | – | – | – | – | – | – | – | 3.45 | 5.45
